Laboratory results taken from patent US20150344570A1 (published 2015).

B1: GpH7-B3 variant H268_09D/GpL16-k0 (antibody, human IgG1, kappa)
heavy: not shown
light: DIVMTQSPLSLPVTPGEPASISCQASESLVHSNRNTYLHWYLQKPGQSPQLLIYKVSNRFSGVPDRFSGSGSGTDFTLKISRVEAEDVGVYYCSQNTHVPPTFGQGTKVEIERTVAAPSVFIFPPSDEQLKSGTASVVCLLNNFYPREAKVQWKVDNALQSGNSQESVTEQDSKDSTYSLSSTLTLSKADYEKHKVYACEVTHQGLSSPVTKSFNRGEC
notes: homodimerized IgG1, mutation in both H chains; also called Ho Ab
B2: GpH7-A5/GpH7-B3 variant T335_04F/GpL16-k0 (antibody, human IgG1, kappa)
heavy 1: not shown
heavy 2: not shown
light: B1 light
notes: heterodimerized IgG1, mutation in one H chain only; also called He Ab
B3: GpH7-A5/GpH7-B3 variant A330_19Q/GpL16-k0 (antibody, human IgG1, kappa)
heavy 1: not shown
heavy 2: not shown
light: B1 light
notes: as for B2
B4: GpH7-B3 variant Y296_20W/GpL16-k0 (antibody, human IgG1, kappa)
heavy: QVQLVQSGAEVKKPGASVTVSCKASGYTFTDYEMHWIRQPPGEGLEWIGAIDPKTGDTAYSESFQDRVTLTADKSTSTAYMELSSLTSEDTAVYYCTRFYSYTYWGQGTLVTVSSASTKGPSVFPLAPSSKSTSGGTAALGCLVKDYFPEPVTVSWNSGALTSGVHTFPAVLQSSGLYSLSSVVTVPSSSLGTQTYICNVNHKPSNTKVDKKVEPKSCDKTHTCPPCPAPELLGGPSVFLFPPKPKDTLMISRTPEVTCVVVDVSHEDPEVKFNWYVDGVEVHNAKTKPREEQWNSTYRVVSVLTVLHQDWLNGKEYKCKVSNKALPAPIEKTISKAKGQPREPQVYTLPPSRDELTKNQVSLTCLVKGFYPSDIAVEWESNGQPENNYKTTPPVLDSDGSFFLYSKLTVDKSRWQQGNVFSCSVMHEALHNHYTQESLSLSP
light: B1 light
notes: as for B1
B5: GpH7-B3 variant T335_05P/GpL16-k0 (antibody, human IgG1, kappa)
heavy: not shown
light: B1 light
notes: as for B1
B6: GpH7-A5/GpH7-B3 variant H268_09D/GpL16-k0 (antibody, human IgG1, kappa)
heavy 1: not shown
heavy 2: not shown
light: B1 light
notes: as for B2
B7: GpH7-A5/GpH7-B3 variant H268_13S/GpL16-k0 (antibody, human IgG1, kappa)
heavy 1: not shown
heavy 2: not shown
light: B1 light
notes: as for B2
B8: GpH7-A5/GpH7-B3 variant H268_01G/GpL16-k0 (antibody, human IgG1, kappa)
heavy 1: not shown
heavy 2: not shown
light: B1 light
notes: as for B2
B9: GpH7-A5/GpH7-B3 variant A330_10E/GpL16-k0 (antibody, human IgG1, kappa)
heavy 1: not shown
heavy 2: not shown
light: B1 light
notes: as for B2
B10: GpH7-B3 variant Y296_16H/GpL16-k0 (antibody, human IgG1, kappa)
heavy: not shown
light: B1 light
notes: as for B1
B11: GpH7-B3 variant I336_08L/GpL16-k0 (antibody, human IgG1, kappa)
heavy: not shown
light: B1 light
notes: as for B1
B12: GpH7-A5/GpH7-B3 variant H268_18N/GpL16-k0 (antibody, human IgG1, kappa)
heavy 1: not shown
heavy 2: not shown
light: B1 light
notes: as for B2
B13: GpH7-B3 variant Y300_03V/GpL16-k0 (antibody, human IgG1, kappa)
heavy: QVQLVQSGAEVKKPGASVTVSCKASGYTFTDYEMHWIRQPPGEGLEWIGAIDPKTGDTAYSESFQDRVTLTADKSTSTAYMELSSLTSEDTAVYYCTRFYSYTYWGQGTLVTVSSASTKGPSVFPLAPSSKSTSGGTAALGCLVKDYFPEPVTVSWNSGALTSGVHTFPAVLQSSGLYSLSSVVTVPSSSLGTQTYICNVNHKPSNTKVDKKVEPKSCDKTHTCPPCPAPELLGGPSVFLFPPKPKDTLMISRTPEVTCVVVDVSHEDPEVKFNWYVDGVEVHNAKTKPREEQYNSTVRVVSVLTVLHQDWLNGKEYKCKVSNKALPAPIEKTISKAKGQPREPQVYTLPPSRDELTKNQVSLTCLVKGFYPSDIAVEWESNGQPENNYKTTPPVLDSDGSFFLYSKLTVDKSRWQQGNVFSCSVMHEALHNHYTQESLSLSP
light: B1 light
notes: as for B1
B14: GpH7-B3 variant T335_18N/GpL16-k0 (antibody, human IgG1, kappa)
heavy: not shown
light: B1 light
notes: as for B1
B15: GpH7-B3 variant T335_10E/GpL16-k0 (antibody, human IgG1, kappa)
heavy: not shown
light: B1 light
notes: as for B1
B16: GpH7-A5/GpH7-B3 variant D265_10E/GpL16-k0 (antibody, human IgG1, kappa)
heavy 1: not shown
heavy 2: not shown
light: B1 light
notes: as for B2
B17: GpH7-B3 variant Y296_06M/GpL16-k0 (antibody, human IgG1, kappa)
heavy: not shown
light: B1 light
notes: as for B1
B18: GpH7-B3 variant S337_10E/GpL16-k0 (antibody, human IgG1, kappa)
heavy: not shown
light: B1 light
notes: as for B1
B19: GpH7-B3 variant H268_13S/GpL16-k0 (antibody, human IgG1, kappa)
heavy: not shown
light: B1 light
notes: as for B1
B20: GpH7-B3 variant S337_04F/GpL16-k0 (antibody, human IgG1, kappa)
heavy: not shown
light: B1 light
notes: as for B1
B21: GpH7-A5/GpH7-B3 variant I336_08L/GpL16-k0 (antibody, human IgG1, kappa)
heavy 1: not shown
heavy 2: not shown
light: B1 light
notes: as for B2
B22: GpH7-B3 variant T335_08L/GpL16-k0 (antibody, human IgG1, kappa)
heavy: not shown
light: B1 light
notes: as for B1
B23: GpH7-B3 variant I336_13S/GpL16-k0 (antibody, human IgG1, kappa)
heavy: not shown
light: B1 light
notes: as for B1
B24: GpH7-B3 variant S337_15Y/GpL16-k0 (antibody, human IgG1, kappa)
heavy: not shown
light: B1 light
notes: as for B1
B25: GpH7-B3 variant T335_09D/GpL16-k0 (antibody, human IgG1, kappa)
heavy: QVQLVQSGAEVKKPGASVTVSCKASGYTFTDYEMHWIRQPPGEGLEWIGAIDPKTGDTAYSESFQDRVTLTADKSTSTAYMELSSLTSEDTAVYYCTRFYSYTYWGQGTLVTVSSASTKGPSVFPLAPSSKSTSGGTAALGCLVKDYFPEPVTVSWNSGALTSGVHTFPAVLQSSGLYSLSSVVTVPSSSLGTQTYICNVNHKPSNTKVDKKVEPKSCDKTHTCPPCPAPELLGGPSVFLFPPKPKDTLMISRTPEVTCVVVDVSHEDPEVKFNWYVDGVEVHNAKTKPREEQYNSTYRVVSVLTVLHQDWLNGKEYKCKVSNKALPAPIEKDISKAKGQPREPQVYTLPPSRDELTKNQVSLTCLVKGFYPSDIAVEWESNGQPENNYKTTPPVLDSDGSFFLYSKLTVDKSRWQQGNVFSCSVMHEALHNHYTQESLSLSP
light: B1 light
notes: as for B1
B26: GpH7-B3 variant T335_15Y/GpL16-k0 (antibody, human IgG1, kappa)
heavy: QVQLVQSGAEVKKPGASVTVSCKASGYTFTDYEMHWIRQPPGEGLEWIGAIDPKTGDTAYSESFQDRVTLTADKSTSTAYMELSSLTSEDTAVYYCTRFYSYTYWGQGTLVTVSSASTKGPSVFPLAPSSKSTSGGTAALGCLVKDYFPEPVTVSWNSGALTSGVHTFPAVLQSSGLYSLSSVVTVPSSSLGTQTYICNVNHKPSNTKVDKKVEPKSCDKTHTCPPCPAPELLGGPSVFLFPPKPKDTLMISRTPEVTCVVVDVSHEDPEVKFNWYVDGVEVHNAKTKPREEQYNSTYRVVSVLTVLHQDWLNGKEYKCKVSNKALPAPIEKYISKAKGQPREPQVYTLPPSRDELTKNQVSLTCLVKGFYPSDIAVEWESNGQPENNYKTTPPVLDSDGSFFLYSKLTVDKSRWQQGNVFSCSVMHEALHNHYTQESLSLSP
light: B1 light
notes: as for B1
B27: GpH7-B3 variant S337_08L/GpL16-k0 (antibody, human IgG1, kappa)
heavy: not shown
light: B1 light
notes: as for B1
B28: GpH7-A5/GpH7-B3 variant A330_01G/GpL16-k0 (antibody, human IgG1, kappa)
heavy 1: not shown
heavy 2: not shown
light: B1 light
notes: as for B2
B29: GpH7-B3 variant Y300_02A/GpL16-k0 (antibody, human IgG1, kappa)
heavy: not shown
light: B1 light
notes: as for B1
B30: GpH7-B3 variant Y296_12R/GpL16-k0 (antibody, human IgG1, kappa)
heavy: not shown
light: B1 light
notes: as for B1
B31: GpH7-B3 variant Y300_11K/GpL16-k0 (antibody, human IgG1, kappa)
heavy: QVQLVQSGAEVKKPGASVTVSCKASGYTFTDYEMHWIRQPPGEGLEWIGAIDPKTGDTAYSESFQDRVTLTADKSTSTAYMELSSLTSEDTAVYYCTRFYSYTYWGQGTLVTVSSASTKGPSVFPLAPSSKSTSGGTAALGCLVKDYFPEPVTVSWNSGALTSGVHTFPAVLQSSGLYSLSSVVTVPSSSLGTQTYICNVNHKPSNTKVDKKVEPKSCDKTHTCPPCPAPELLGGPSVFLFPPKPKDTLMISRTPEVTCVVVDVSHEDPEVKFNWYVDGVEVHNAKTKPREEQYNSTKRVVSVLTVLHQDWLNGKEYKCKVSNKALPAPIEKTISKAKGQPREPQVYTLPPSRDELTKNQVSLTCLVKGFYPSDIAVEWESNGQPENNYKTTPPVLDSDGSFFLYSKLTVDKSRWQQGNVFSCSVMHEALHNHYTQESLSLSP
light: B1 light
notes: as for B1
B32: GpH7-B3 variant S337_07I/GpL16-k0 (antibody, human IgG1, kappa)
heavy: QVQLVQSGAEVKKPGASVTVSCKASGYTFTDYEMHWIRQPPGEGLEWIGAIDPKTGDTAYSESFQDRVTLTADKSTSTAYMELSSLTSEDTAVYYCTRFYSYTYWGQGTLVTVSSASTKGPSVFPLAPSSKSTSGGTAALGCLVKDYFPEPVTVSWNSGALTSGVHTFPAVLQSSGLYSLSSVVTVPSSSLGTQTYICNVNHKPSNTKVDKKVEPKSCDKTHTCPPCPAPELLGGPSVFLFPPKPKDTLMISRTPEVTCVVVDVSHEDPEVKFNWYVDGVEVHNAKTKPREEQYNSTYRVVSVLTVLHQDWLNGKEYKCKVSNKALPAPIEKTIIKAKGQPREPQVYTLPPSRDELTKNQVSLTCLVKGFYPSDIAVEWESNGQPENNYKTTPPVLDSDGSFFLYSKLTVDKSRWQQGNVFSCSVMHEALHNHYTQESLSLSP
light: B1 light
notes: as for B1
B33: GpH7-B3 variant I336_14T/GpL16-k0 (antibody, human IgG1, kappa)
heavy: not shown
light: B1 light
notes: as for B1
B34: GpH7-B3 variant Y300_20W/GpL16-k0 (antibody, human IgG1, kappa)
heavy: not shown
light: B1 light
notes: as for B1
B35: GpH7-B3 variant T335_12R/GpL16-k0 (antibody, human IgG1, kappa)
heavy: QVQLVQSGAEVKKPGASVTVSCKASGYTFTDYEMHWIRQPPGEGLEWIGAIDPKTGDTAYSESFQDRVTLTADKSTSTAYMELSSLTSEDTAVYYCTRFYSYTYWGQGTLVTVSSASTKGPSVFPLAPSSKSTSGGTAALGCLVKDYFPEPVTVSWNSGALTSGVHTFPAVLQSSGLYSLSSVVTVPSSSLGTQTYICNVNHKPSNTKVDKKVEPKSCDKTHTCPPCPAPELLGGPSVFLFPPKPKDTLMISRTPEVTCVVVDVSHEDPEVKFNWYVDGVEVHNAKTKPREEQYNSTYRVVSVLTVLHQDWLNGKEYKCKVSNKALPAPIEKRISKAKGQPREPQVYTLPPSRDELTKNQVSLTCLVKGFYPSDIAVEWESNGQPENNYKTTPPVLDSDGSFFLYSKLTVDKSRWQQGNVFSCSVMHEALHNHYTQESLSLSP
light: B1 light
notes: as for B1
B36: GpH7-B3 variant T335_06M/GpL16-k0 (antibody, human IgG1, kappa)
heavy: not shown
light: B1 light
notes: as for B1
B37: GpH7-B3 variant Y300_08L/GpL16-k0 (antibody, human IgG1, kappa)
heavy: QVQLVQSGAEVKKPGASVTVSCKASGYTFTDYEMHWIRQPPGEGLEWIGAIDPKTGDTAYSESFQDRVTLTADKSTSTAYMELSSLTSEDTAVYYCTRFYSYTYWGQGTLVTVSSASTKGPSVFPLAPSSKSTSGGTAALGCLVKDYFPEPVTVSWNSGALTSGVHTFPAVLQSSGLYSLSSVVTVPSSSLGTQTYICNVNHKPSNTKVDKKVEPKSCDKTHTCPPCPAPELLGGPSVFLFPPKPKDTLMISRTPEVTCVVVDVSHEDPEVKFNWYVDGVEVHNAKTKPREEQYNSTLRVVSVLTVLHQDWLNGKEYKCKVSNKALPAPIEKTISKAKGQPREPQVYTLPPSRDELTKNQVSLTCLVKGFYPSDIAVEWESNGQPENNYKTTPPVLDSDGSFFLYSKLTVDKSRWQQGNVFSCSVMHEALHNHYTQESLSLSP
light: B1 light
notes: as for B1
B38: GpH7-B3 variant I336_11K/GpL16-k0 (antibody, human IgG1, kappa)
heavy: not shown
light: B1 light
notes: as for B1
B39: GpH7-B3 variant T335_20W/GpL16-k0 (antibody, human IgG1, kappa)
heavy: not shown
light: B1 light
notes: as for B1
B40: GpH7-B3 variant I336_12R/GpL16-k0 (antibody, human IgG1, kappa)
heavy: not shown
light: B1 light
notes: as for B1
B41: GpH7-B3 variant H268_10E/GpL16-k0 (antibody, human IgG1, kappa)
heavy: not shown
light: B1 light
notes: as for B1
B42: GpH7-A5/GpH7-B3 variant A330_20W/GpL16-k0 (antibody, human IgG1, kappa)
heavy 1: not shown
heavy 2: not shown
light: B1 light
notes: as for B2
B43: GpH7-B3 variant S337_06M/GpL16-k0 (antibody, human IgG1, kappa)
heavy: not shown
light: B1 light
notes: as for B1
B44: GpH7-B3 variant I336_09D/GpL16-k0 (antibody, human IgG1, kappa)
heavy: not shown
light: B1 light
notes: as for B1
B45: GpH7-A5/GpH7-B3 variant A330_04F/GpL16-k0 (antibody, human IgG1, kappa)
heavy 1: not shown
heavy 2: not shown
light: B1 light
notes: as for B2
B46: GpH7-B3 variant T335_16H/GpL16-k0 (antibody, human IgG1, kappa)
heavy: not shown
light: B1 light
notes: as for B1
B47: GpH7-B3 variant Y300_19Q/GpL16-k0 (antibody, human IgG1, kappa)
heavy: not shown
light: B1 light
notes: as for B1
B48: GpH7-A5/GpH7-B3 variant H268_10E/GpL16-k0 (antibody, human IgG1, kappa)
heavy 1: not shown
heavy 2: not shown
light: B1 light
notes: as for B2
B49: GpH7-B3 variant Y300_14T/GpL16-k0 (antibody, human IgG1, kappa)
heavy: not shown
light: B1 light
notes: as for B1
B50: GpH7-B3 variant S337_20W/GpL16-k0 (antibody, human IgG1, kappa)
heavy: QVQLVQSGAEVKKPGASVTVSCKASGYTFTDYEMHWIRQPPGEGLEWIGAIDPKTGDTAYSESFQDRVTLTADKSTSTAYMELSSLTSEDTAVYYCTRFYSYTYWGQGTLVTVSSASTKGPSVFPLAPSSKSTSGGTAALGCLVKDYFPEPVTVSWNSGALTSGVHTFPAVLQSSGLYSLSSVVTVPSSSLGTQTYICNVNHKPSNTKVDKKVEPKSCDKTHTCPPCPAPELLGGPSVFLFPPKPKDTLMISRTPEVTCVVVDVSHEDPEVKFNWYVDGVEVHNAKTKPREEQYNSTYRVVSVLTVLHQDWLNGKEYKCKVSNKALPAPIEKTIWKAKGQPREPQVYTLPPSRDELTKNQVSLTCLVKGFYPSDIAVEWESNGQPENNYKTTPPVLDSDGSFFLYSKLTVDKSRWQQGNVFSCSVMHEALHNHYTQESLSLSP
light: B1 light
notes: as for B1
B51: GpH7-B3 variant T335_07I/GpL16-k0 (antibody, human IgG1, kappa)
heavy: not shown
light: B1 light
notes: as for B1
B52: GpH7-B3 variant Y296_11K/GpL16-k0 (antibody, human IgG1, kappa)
heavy: not shown
light: B1 light
notes: as for B1
B53: GpH7-B3 variant Y300_13S/GpL16-k0 (antibody, human IgG1, kappa)
heavy: not shown
light: B1 light
notes: as for B1
B54: GpH7-B3 variant Y300_06M/GpL16-k0 (antibody, human IgG1, kappa)
heavy: not shown
light: B1 light
notes: as for B1
B55: GpH7-B3 variant S337_09D/GpL16-k0 (antibody, human IgG1, kappa)
heavy: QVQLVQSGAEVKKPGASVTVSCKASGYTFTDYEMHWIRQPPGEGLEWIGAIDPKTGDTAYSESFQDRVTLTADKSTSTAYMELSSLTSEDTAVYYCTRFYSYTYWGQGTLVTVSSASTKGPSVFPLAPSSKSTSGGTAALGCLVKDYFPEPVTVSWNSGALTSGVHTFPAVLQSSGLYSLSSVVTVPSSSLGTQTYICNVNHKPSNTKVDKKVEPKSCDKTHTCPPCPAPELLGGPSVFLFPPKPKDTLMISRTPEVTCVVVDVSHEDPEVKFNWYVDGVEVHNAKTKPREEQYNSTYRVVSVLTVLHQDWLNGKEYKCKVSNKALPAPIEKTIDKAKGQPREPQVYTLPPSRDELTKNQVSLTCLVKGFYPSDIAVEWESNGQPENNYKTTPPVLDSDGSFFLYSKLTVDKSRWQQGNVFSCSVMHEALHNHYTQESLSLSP
light: B1 light
notes: as for B1
B56: GpH7-B3 variant T335_11K/GpL16-k0 (antibody, human IgG1, kappa)
heavy: not shown
light: B1 light
notes: as for B1
B57: GpH7-B3 variant H268_18N/GpL16-k0 (antibody, human IgG1, kappa)
heavy: not shown
light: B1 light
notes: as for B1
B58: GpH7-B3 variant T335_19Q/GpL16-k0 (antibody, human IgG1, kappa)
heavy: not shown
light: B1 light
notes: as for B1
B59: GpH7-B3 variant S337_19Q/GpL16-k0 (antibody, human IgG1, kappa)
heavy: not shown
light: B1 light
notes: as for B1

Experiments:
FcγRIa [1] = target: T1, FcγRIa (human, UniProt P12314 16-292); assay: SPR (Biacore), captured antibody, FcγRIa analyte; relative to GpH7-B3/GpL16-k0
T1 construct: extracellular domain; soluble His-tagged extracellular domain expressed in FreeStyle293 cells, used as analyte in Biacore; also called FcgRI; CD64

FcγRIa [2] = target: T1, FcγRIa; assay: SPR (Biacore), captured antibody, FcγRIa analyte; relative to GpH7-A5/GpH7-B3/GpL16-k0

T1 sequence (P12314 16-292): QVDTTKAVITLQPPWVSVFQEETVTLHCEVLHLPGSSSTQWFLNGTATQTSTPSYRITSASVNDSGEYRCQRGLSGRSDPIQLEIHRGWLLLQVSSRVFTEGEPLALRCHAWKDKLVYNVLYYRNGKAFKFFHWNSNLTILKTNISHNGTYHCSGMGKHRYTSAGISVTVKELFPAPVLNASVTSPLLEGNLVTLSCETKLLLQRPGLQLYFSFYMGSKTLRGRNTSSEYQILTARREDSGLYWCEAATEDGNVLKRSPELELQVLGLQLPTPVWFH

Row | Binder | Ho/Con_1a (FcγRIa [1]) | He/Con_1a (FcγRIa [2])
1 | B1 | 110 relative, control = 100 | 
2 | B2 |  | 105 relative, control = 100
3 | B3 |  | 105 relative, control = 100
4 | B4 | 106 relative, control = 100 | 
5 | B5 | 106 relative, control = 100 | 
6 | B6 |  | 110 relative, control = 100
7 | B7 |  | 109 relative, control = 100
8 | B8 |  | 107 relative, control = 100
9 | B9 |  | 107 relative, control = 100
10 | B10 | 105 relative, control = 100 | 
11 | B11 | 109 relative, control = 100 | 
12 | B12 |  | 108 relative, control = 100
13 | B13 | 112 relative, control = 100 | 
14 | B14 | 102 relative, control = 100 | 
15 | B15 | 108 relative, control = 100 | 
16 | B16 |  | 101 relative, control = 100
17 | B17 | 104 relative, control = 100 | 
18 | B18 | 104 relative, control = 100 | 
19 | B19 | 110 relative, control = 100 | 
20 | B20 | 105 relative, control = 100 | 

Row | Binder | Ho/Con_1a (FcγRIa [1]) | He/Con_1a (FcγRIa [2])
21 | B21 |  | 107 relative, control = 100
22 | B22 | 105 relative, control = 100 | 
23 | B23 | 110 relative, control = 100 | 
24 | B24 | 104 relative, control = 100 | 
25 | B25 | 107 relative, control = 100 | 
26 | B26 | 106 relative, control = 100 | 
27 | B27 | 105 relative, control = 100 | 
28 | B28 |  | 106 relative, control = 100
29 | B29 | 110 relative, control = 100 | 
30 | B30 | 103 relative, control = 100 | 
31 | B31 | 101 relative, control = 100 | 
32 | B32 | 105 relative, control = 100 | 
33 | B33 | 111 relative, control = 100 | 
34 | B34 | 110 relative, control = 100 | 
35 | B35 | 106 relative, control = 100 | 
36 | B36 | 106 relative, control = 100 | 
37 | B37 | 109 relative, control = 100 | 
38 | B38 | 107 relative, control = 100 | 
39 | B39 | 104 relative, control = 100 | 
40 | B40 | 109 relative, control = 100 | 

Row | Binder | Ho/Con_1a (FcγRIa [1]) | He/Con_1a (FcγRIa [2])
41 | B41 | 112 relative, control = 100 | 
42 | B42 |  | 108 relative, control = 100
43 | B43 | 102 relative, control = 100 | 
44 | B44 | 108 relative, control = 100 | 
45 | B45 |  | 106 relative, control = 100
46 | B46 | 104 relative, control = 100 | 
47 | B47 | 110 relative, control = 100 | 
48 | B48 |  | 111 relative, control = 100
49 | B49 | 110 relative, control = 100 | 
50 | B50 | 104 relative, control = 100 | 
51 | B51 | 105 relative, control = 100 | 
52 | B52 | 102 relative, control = 100 | 
53 | B53 | 110 relative, control = 100 | 
54 | B54 | 111 relative, control = 100 | 
55 | B55 | 106 relative, control = 100 | 
56 | B56 | 103 relative, control = 100 | 
57 | B57 | 108 relative, control = 100 | 
58 | B58 | 105 relative, control = 100 | 
59 | B59 | 105 relative, control = 100 | 
